In paper PMC4431850 (PLoS ONE, 2015):

B1: BTB domain of KCTD12 (KCTD12^BTB) (domain or fragment, UniProt Q96CX2 27-131, looked up)
chain: AEPPLFPDIVELNVGGQVYVTRRCTVVSVPDSLLWRMFTQQQPQELARDSKGRFFLDRDGFLFRYILDYLRDLQLVLPDYFPERSRLQREAEYFELPELVRRLGA
notes: KCTD12, BTB domain, residues 27-131 of UniProt Q96CX2; Tetramer (~46 kDa); source: E. coli BL21(DE3), purified (procedure of Correale et al. [24] and Errington et al. [25])
B2: BTB domain of KCTD11 (KCTD11^BTB) (domain or fragment, UniProt Q693B1-2 15-116, looked up)
chain: GPVTLNVGGTLYSTTLETLTRFPDSMLGAMFRAGTPMPPNLNSQGGGHYFIDRDGKAFRHILNFLRLGRLDLPRGYGETALLRAEADFYQIRPLLDALRELE
notes: KCTD11, BTB domain, residues 15-116 of the long form of the protein (isoform 2, UniProt Q693B1-2); numbers count on: the long form (isoform 2); Tetramer (~46 kDa); source: E. coli BL21(DE3), purified (procedure of Correale et al. [5])
B3: BTB domain of KCTD6 (KCTD6^BTB) (domain or fragment, UniProt Q8NC69 10-110, looked up)
chain: MTDPVTLNVGGHLYTTSLTTLTRYPDSMLGAMFGGDFPTARDPQGNYFIDRDGPLFRYVLNFLRTSELTLPLDFKEFDLLRKEADFYQIEPLIQCLNDPKP
notes: KCTD6, BTB domain, residues 10-110 of UniProt Q8NC69; Tetramer (~46 kDa); source: E. coli BL21(DE3), purified (protocol of Pirone et al. [23])
B4: BTB domain of KCTD15 (KCTD15^BTB) (domain or fragment, human, UniProt Q96SI1-1 61-157, looked up)
chain: DVGGHMYTSSLATLTKYPDSRISRLFNGTEPIVLDSLKQHYFIDRDGEIFRYVLSFLRTSKLLLPDDFKDFSLLYEEARYYQLQPMVRELERWQQEQ
notes: KCTD15, human, BTB domain, residues 61-157 of UniProt Q96SI1-1; cloned NdeI/EcoRI into pET28b+; Tetramer by light scattering (47.1 kDa against 47.5 kDa expected); source: E. coli BL21(DE3) pLys-S co-transformed with pREP4 GroESL, purified (Ni-NTA, Superdex200)
B5: chimeric BTB domain CHIM11/12^BTB (KCTD11^BTB with residues 42-63 replaced by residues 61-80 of KCTD12^BTB) (domain or fragment, UniProt Q693B1-2 15-41, looked up)
chain: GPVTLNVGGTLYSTTLETLTRFPDSMLWRMFTQQQPQELARDSKGRFFIDRDGKAFRHILNFLRLGRLDLPRGYGETALLRAEADFYQIRPLLDALRELE
notes: KCTD11 BTB domain (15-116 of the long form, isoform 2) up to the replaced α2β3 loop (42-63); numbers count on: the long form (isoform 2); KCTD12, residues 61-80, predicted α2β3 loop; KCTD11 BTB domain (15-116 of the long form, isoform 2) after the replaced α2β3 loop (42-63); also called chimeric variant of KCTD11; source: E. coli, purified (procedure used for KCTD11 [5])

Experiments:
[1] = biological target: the molecule itself; assay: SEC-MALS; light scattering experiments, data not shown; oligomeric state
[2] = biological target: T1, Cul3^NTD, N-terminal region (residues 20-381) of cullin 3 (UniProt Q13618 20-381); assay: SEC; BTB domain mixed with Cul3^NTD at 4°C in 20 mM NaP, 200 mM NaCl, 2 mM DTT pH 7.5; Superdex 200 10/30; SDS-PAGE of the peaks; details: both partners purified
T1 construct: cullin 3, N-terminal region, residues 20-381; Printed Mw 42 kDa; source: expressed and purified according to Balasco et al. [19]; recombinant, bacterial system

[3] = biological target: T1, Cul3^NTD, N-terminal region (residues …); assay: ITC; BTB domain (55 μM as tetramer) titrated into Cul3^NTD (25 μM); 22°C; 20 mM NaP, 200 mM NaCl, 2 mM DTT pH 7.5; single-binding site model; details: both partners purified
[4] = biological target: the molecule itself; assay: SEC-MALS; Superdex200 10/30 coupled to light scattering (miniDAWN TREOS) and refractive index detectors; 20 mM sodium phosphate pH 7.5, 2 mM DTT; oligomeric state

T1 sequence (Q13618 20-381): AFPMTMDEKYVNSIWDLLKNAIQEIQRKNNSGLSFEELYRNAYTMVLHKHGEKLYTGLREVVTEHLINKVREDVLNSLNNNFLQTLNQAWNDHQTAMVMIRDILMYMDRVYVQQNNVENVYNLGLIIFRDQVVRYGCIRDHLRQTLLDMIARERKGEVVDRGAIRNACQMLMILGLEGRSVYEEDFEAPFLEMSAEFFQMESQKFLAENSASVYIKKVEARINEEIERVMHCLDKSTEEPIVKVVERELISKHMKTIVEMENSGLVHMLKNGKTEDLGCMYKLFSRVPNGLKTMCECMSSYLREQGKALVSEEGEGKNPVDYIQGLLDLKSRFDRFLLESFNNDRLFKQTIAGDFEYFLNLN

| Binder | stoichiometry N [1] | stoichiometry N [4] | also measured |
| --- | --- | --- | --- |
| B1 | 4 | – | – |
| B2 | 4 | – | stoichiometry N [2]: 1 BTB chains : Cul3^NTD (4:4); Kd [3]: 25 ± 2 nM; dH [3]: -21 ± 0.1 kcal/mol; stoichiometry N [3]: ~0.25 KCTD tetramers per Cul3^NTD |
| B3 | 4 | – | – |
| B4 | – | 4 | – |
| B5 | – | 4 | – |
